System: HIBCPP monolayers
Assay: Paracellular permeability: FITC-inulin flux through HIBCPP layers on transwell filters
Assay type: in vitro ADME, human
Conditions: standard and inverted transwell filter system
Experimental: HIBCPP were cultured in a 1:1 mixture of DMEM medium and HAM's F12 medium, supplemented with 4 mM L-Glutamine, 5 μg/ml insulin, penicillin (100 U/ml) and streptomycin (100 μg/ml), and 15% (v/v) heat inactivated fetal calf serum (FCS) [HIBCPP-medium with 15% (v/v) FCS]. Since HIBCPP have been described to change doubling time with increasing passages, only cells between passage 33 and 37 were used. For filter-based assays, the amounts of cells indicated in the respective experiments were seeded on the filter membrane of transwell filters (pore diameter 3.0 μm, pore density 2.0×10^6 pores per cm^2, 0.33 cm^2; Greiner Bio-one, Frickenhausen, Germany). For the standard transwell filter system, cells were seeded into the upper well of the transwell filter. Subsequently, cells were washed once each of the following two days. Medium was added to the lower well not before day two after seeding. […]
Paracellular permeability of HIBCPP monolayers was determined by measuring the passage of a FITC-inulin (Sigma, Deisenhofen, Germany) tracer solution (100 μg/ml) from the apical to the basolateral compartment of transwell filters carrying the monolayers in a Tecan Infinite M200 Multiwell reader (Tecan, Switzerland) employing Magellan V6.6 software.

Substance: FITC-inulin
- permeability for FITC-inulin (after day 0, simultaneously with development of a high TEER, 15%, 1% or no serum): below 1%
- FITC-inulin flux (up to day 0 when TEER values are still low, tracer 100 μg/ml): ≥ 3%
